# In patent publication US20220281998A1 (AZUSAPHARMA SCIENCES, published 2022):
# T1: human EpCAM on HCT116 cells (EpCAM-positive human colon cancer cell line) (human, UniProt P16422 24-314)
# T1 sequence (looked up): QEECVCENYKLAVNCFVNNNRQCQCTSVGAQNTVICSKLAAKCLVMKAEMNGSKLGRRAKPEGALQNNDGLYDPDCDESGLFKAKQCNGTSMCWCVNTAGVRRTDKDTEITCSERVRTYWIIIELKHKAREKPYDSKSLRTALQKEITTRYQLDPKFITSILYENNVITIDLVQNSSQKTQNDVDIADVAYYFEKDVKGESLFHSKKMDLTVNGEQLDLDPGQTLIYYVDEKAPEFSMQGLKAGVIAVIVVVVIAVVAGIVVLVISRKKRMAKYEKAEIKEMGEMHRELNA
# Experiments:
# [1] = target: human PSMA on 22Rv1 cells (PSMA-positive human prostate cancer cell line) (human, UniProt Q04609 1-750); test: cell-based or functional assay
# [2] = target: recombinant biotinylated human EGFR (manufactured by ACROBiosystems) (human, UniProt P00533 25-645, biotinylated (site not stated)); test: sandwich ELISA: immobilised human CD3E/CD3D heterodimer, BsAb, detection with biotinylated human EGFR
# [3] = target: T2, human CD3E/CD3D heterodimer recombinant protein (manufactured by ACROBiosystems) (human, UniProt P07766 23-126; P04234 22-105); test: sandwich ELISA: immobilised human CD3E/CD3D heterodimer, BsAb, biotinylated HER2
# T2 construct: Bought reagent, immobilised on ELISA plates
# [4] = target: human EGFR on human cancer cell lines (HCT116, A-431, NCI-H1975, HT-29, RKO) (human, UniProt P00533 25-1210); test: cell-based or functional assay
# [5] = target: T2, human CD3E/CD3D heterodimer recombinant …; test: sandwich ELISA: immobilised human CD3E/CD3D heterodimer, BsAb, biotinylated EpCAM
# Experimental: 25 μL of a solution containing 2.5 μg/mL human CD3E/CD3D heterodimer recombinant protein (available from ACROBiosystems) was dispensed into each well of a 96-well plate, followed by standing overnight at 4° C. for immobilization. The solution after immobilization was removed, and each well was washed with 200 μL of PBS-T 3 times. Thereafter, 200 μL of a blocking solution (Blocking One, manufactured by NACALAI TESQUE, INC.) diluted 5-fold with distilled water was dispensed, followed by standing at 25° C. for 2 hours for blocking treatment. The blocking solution in each well was removed, and the well was washed with 200 μL of PBS-T 3 times. 100 (ng/mL) or 1000 (ng/mL) EpCAM×CD3 diabody-type BsAb and 100 (ng/mL) or 1000 (ng/mL) EGFR×CD3 diabody-type BsAb as a negative control were each diluted 50-fold with a signal enhancer HIKARI A solution (manufactured by NACALAI TESQUE, INC.) containing 1% BSA, and 25 μL of each solution was dispensed into each well after blocking, followed by standing at 25° C. for 2 hours for reaction treatment between the antibody (EpCAM×CD3 diabody-type BsAb) and the antigen (immobilized human CD3E/CD3D heterodimer recombinant protein). Thereafter, the solution in each well was removed, and the well was washed with 200 μL of PBS-T 3 times.
# [6] = target: T1, human EpCAM on HCT116 cells …; test: cell-based or functional assay
# [7] = target: T2, human CD3E/CD3D heterodimer recombinant …; test: sandwich ELISA: immobilised human CD3E/CD3D heterodimer, BsAb, biotinylated human EGFR
# T2 sequence (P07766 23-126 limits assumed, chain 1 of 2): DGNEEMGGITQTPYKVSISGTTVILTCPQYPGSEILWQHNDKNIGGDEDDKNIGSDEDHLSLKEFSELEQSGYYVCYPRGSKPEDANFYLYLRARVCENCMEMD
# T2 sequence (P04234 22-105 limits assumed, chain 2 of 2): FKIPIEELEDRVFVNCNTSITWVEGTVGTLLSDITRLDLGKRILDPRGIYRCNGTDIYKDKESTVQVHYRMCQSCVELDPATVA
# Sequence of human PSMA on 22Rv1 cells (PSMA-positive human prostate cancer cell line) (Q04609 whole entry): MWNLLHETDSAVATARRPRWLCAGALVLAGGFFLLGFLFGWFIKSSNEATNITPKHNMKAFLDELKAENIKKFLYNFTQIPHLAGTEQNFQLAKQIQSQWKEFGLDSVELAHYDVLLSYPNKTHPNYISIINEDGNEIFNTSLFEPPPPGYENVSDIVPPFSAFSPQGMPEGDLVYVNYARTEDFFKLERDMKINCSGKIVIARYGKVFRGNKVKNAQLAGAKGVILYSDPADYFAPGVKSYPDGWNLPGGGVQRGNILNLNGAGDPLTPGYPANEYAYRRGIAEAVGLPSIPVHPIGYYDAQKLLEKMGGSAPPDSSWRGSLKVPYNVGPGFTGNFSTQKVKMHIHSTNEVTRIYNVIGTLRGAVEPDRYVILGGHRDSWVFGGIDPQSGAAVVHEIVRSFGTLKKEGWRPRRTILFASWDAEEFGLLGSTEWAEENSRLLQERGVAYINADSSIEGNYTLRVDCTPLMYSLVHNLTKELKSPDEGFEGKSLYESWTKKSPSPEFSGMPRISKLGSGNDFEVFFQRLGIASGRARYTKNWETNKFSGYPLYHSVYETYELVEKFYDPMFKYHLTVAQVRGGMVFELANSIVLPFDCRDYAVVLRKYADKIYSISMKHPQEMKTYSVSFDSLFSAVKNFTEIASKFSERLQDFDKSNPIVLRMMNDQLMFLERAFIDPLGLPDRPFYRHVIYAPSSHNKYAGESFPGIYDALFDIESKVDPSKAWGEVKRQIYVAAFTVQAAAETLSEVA
binder,measurement,setting,value
HL-PUM-H diabody-type BsAb (PSMA×CD3 diabody-type BsAb derived from HL-PUM-H strain) (bispecific antibody) chain 1: ATEVQLVESGGGLVQPGGSLRLSCAASGYSFTGYTMNWVRQAPGKGLEWVALINPYKGVSTYNQKFKDRFTISVDKSKNTAYLQMNSLRAEDTAVYYCARSGYYGDSDWYFDVWGQGTLVTVSSAAGGGGSDIQMTQSPSSLSASVGDRVTITCKASQNVDTNVAWYQQKPGQAPKSLIYSASYRYSDVPSRFSGSASGTDFTLTISSVQSEDFATYYCQQYDSYPYTFGGGTKLEIKAAAEQKLISEEDLNLGGGMRGSHHHHHH chain 2: ADQVQLVESGGGLVKPGESLRLSCAASGFTFSDYYMYWVRQAPGKGLEWVAIISDGGYYTYYSDIIKGRFTISRDNAKNSLYLQMNSLKAEDTAVYYCARGFPLLRHGAMDYWGQGTLVTVSSAAGGGGSDIQMTQSPSSLSASVGDRVTITCRASQDIRNYLNWYQQKPGKAPKLLIYYTSRLESGVPSRFSGSGSGTDYTLTISSLQPEDFATYYCQQGNTLPWTFGQGTKVEIKAAAEQKLISEEDLNLGGGMRGSHHHHHH,"EC50, cytotoxic activity on 22Rv1 cells with T-LAKs",[1],0.233 nM
"LH36 diabody-type BsAb (HER2×CD3 diabody-type BsAb derived from CUM-36-1H strain) (bispecific antibody, Secreted by Bifidobacterium longum 105-A carrying pLH36-1; purified through the His tag; also called LH36 polypeptide 1 + LH36 polypeptide 2 (SP50-L2)) chain 1: ATLTPDIQMTQSPSSLSASVGDRVTITCKASQDVSIGVAWYQQKPGKAPKLLIYSASYRYTGVPSRFSGSGSGTDFTLTISSLQPEDFATYYCQQYYIYPYTFGQGTKVEIKAAGGGGSEVQLVESGGGLVQPGGSLRLSCAASGYSFTGYTMNWVRQAPGKGLEWVALINPYKGVSTYNQKFKDRFTISVDKSKNTAYLQMNSLRAEDTAVYYCARSGYYGDSDWYFDVWGQGTLVTVSSAAAEQKLISEEDLNLGGGMRGSHHHHHH chain 2: ATDIQMTQSPSSLSASVGDRVTITCRASQDIRNYLNWYQQKPGKAPKLLIYYTSRLESGVPSRFSGSGSGTDYTLTISSLQPEDFATYYCQQGNTLPWTFGQGTKVEIKAAGGGGSEVQLVESGGGLVQPGGSLRLSCAASGFTFTDYTMDWVRQAPGKGLEWVADVNPNSGGSIYNQRFKGRFTLSVDRSKNTLYLQMNSLRAEDTAVYYCARNLGPSFYFDYWGQGTLVTVSSAAAEQKLISEEDLNLGGGMRGSHHHHHH",binding result,[2],no binding
same,binding result,[3],binds
"LH36 diabody-type BsAb (HER2×CD3 diabody-type BsAb derived from CUM-36-2H strain) (bispecific antibody, Secreted by Bifidobacterium longum 105-A carrying pLH36-2; purified through the His tag; also called LH36 polypeptide 1 + LH36 polypeptide 2 (SP52-L2)) chain 1: ATLTPDIQMTQSPSSLSASVGDRVTITCKASQDVSIGVAWYQQKPGKAPKLLIYSASYRYTGVPSRFSGSGSGTDFTLTISSLQPEDFATYYCQQYYIYPYTFGQGTKVEIKAAGGGGSEVQLVESGGGLVQPGGSLRLSCAASGYSFTGYTMNWVRQAPGKGLEWVALINPYKGVSTYNQKFKDRFTISVDKSKNTAYLQMNSLRAEDTAVYYCARSGYYGDSDWYFDVWGQGTLVTVSSAAAEQKLISEEDLNLGGGMRGSHHHHHH chain 2: ADDIQMTQSPSSLSASVGDRVTITCRASQDIRNYLNWYQQKPGKAPKLLIYYTSRLESGVPSRFSGSGSGTDYTLTISSLQPEDFATYYCQQGNTLPWTFGQGTKVEIKAAGGGGSEVQLVESGGGLVQPGGSLRLSCAASGFTFTDYTMDWVRQAPGKGLEWVADVNPNSGGSIYNQRFKGRFTLSVDRSKNTLYLQMNSLRAEDTAVYYCARNLGPSFYFDYWGQGTLVTVSSAAAEQKLISEEDLNLGGGMRGSHHHHHH",binding result,[3],binds
LH22 diabody-type BsAb (EGFR×CD3 diabody-type BsAb derived from FOM-22H strain) (bispecific antibody) chain 1: ATLTPDIQMTQSPSSLSASVGDRVTITCSASSSVSYMNWYQQTPGKAPKRWIYDTSKLASGVPSRFSGSGSGTDYTFTISSLQPEDIATYYCQQWSSNPFTFGQGTKLQITAAGGGGSQVQLQESGPGLVKPSQTLSLTCTVSGGSISSGDYYWSWIRQPPGKGLEWIGYIYYSGSTDYNPSLKSRVTMSVDTSKNQFSLKVNSVTAADTAVYYCARVSIFGVGTFDYWGQGTLVTVSSAAAEQKLISEEDLNLGGGMRGSHHHHHH chain 2: ATLTPDIVMTQSPATLSLSPGERATLSCRASQSVSSYLAWYQQKPGQAPRLLIYDASNRATGIPARFSGSGSGTDFTLTISSLEPEDFAVYYCHQYGSTPLTFGGGTKAEIKAAGGGGSQVQLVQSGGGVVQPGRSLRLSCKASGYTFTRYTMHWVRQAPGKGLEWIGYINPSRGYTNYNQKVKDRFTISRDNSKNTAFLQMDSLRPEDTGVYFCARYYDDHYSLDYWGQGTPVTVSSAAAEQKLISEEDLNLGGGMRGSHHHHHH,"EC50: concentration that reduced the viability of HCT116 cells to 50% (T-LAK:HCT116 5:1, 24 h)",[4],0.00025 nM
LH-PUM-H diabody-type BsAb (PSMA×CD3 diabody-type BsAb derived from LH-PUM-H strain) (bispecific antibody) chain 1: ATDIQMTQSPSSLSASVGDRVTITCRASQDIRNYLNWYQQKPGKAPKLLIYYTSRLESGVPSRFSGSGSGTDYTLTISSLQPEDFATYYCQQGNTLPWTFGQGTKVEIKAAGGGGSQVQLVESGGGLVKPGESLRLSCAASGFTFSDYYMYWVRQAPGKGLEWVAIISDGGYYTYYSDIIKGRFTISRDNAKNSLYLQMNSLKAEDTAVYYCARGFPLLRHGAMDYWGQGTLVTVSSAAAEQKLISEEDLNLGGGMRGSHHHHHH chain 2: ADDIQMTQSPSSLSASVGDRVTITCKASQNVDTNVAWYQQKPGQAPKSLIYSASYRYSDVPSRFSGSASGTDFTLTISSVQSEDFATYYCQQYDSYPYTFGGGTKLEIKAAGGGGSEVQLVESGGGLVQPGGSLRLSCAASGYSFTGYTMNWVRQAPGKGLEWVALINPYKGVSTYNQKFKDRFTISVDKSKNTAYLQMNSLRAEDTAVYYCARSGYYGDSDWYFDVWGQGTLVTVSSAAAEQKLISEEDLNLGGGMRGSHHHHHH,"EC50, cytotoxic activity on 22Rv1 cells with T-LAKs",[1],0.155 nM
"EUM-H diabody-type BsAb (EpCAM×CD3 diabody-type BsAb derived from EUM-H strain) (bispecific antibody, Secreted by Bifidobacterium longum 105-A carrying pEUM-H; purified through the His tag; also called EUM-H polypeptide 1 + EUM-H polypeptide 2) chain 1: ATDIQMTQSPSSLSASVGDRVTITCRASQDIRNYLNWYQQKPGKAPKLLIYYTSRLESGVPSRFSGSGSGTDYTLTISSLQPEDFATYYCQQGNTLPWTFGQGTKVEIKAAGGGGSEVQLLEQSGAELVRPGTSVKISCKASGYAFTNYWLGWVKQRPGHGLEWIGDIFPGSGNIHYNEKFKGKATLTADKSSSTAYMQLSSLTFEDSAVYFCARLRNWDEPMDYWGQGTTVTVSSAAAEQKLISEEDLNLGGGMRGSHHHHHH chain 2: ADELVMTQSPSSLTVTAGEKVTMSCKSSQSLLNSGNQKNYLTWYQQKPGQPPKLLIYWASTRESGVPDRFTGSGSGTDFTLTISSVQAEDLAVYYCQNDYSYPLTFGAGTKLEIKAAGGGGSEVQLVESGGGLVQPGGSLRLSCAASGYSFTGYTMNWVRQAPGKGLEWVALINPYKGVSTYNQKFKDRFTISVDKSKNTAYLQMNSLRAEDTAVYYCARSGYYGDSDWYFDVWGQGTLVTVSSAAAEQKLISEEDLNLGGGMRGSHHHHHH",binding result,[5],binds
same,"EC50, cytotoxic activity on HCT116 cells with T-LAKs",[6],0.0173 nM
LH9 diabody-type BsAb (EGFR×CD3 diabody-type BsAb derived from FLM-9H strain) (bispecific antibody) chain 1: ATLTPDIVLTQSPATLSLSPGERATLSCRASQSVSYMNWYQQKPGKAPKRWIYDTSKVASGVPARFSGSGSGTDYSLTINSLEAEDAATYYCQQWSSNPLTFGGGTKVEIKAAGGGGSQVQLQESGPGLVKPSQTLSLTCTVSGGSISSGDYYWSWIRQPPGKGLEWIGYIYYSGSTDYNPSLKSRVTMSVDTSKNQFSLKVNSVTAADTAVYYCARVSIFGVGTFDYWGQGTLVTVSSAAAAEQKLISEEDLNLGGGMRGSHHHHHH chain 2: ATLTPDIVMTQSPATLSLSPGERATLSCRASQSVSSYLAWYQQKPGQAPRLLIYDASNRATGIPARFSGSGSGTDFTLTISSLEPEDFAVYYCHQYGSTPLTFGGGTKAEIKAAGGGGSDVQLVQSGAEVKKPGASVKVSCKASGYTFTRYTMHWVRQAPGQGLEWIGYINPSRGYTNYADSVKGRFTITTDKSTSTAYMELSSLRSEDTATYYCARYYDDHYCLDYWGQGTTVTVSSAAAEQKLISEEDLNLGGGMRGSHHHHHH,"EC50: concentration that reduced the viability of HCT116 cells to 50% (T-LAK:HCT116 5:1, 24 h)",[4],0.0022 nM
"LH31 diabody-type BsAb (EGFR×CD3 diabody-type BsAb derived from DUM-126H strain) (bispecific antibody, Secreted by Bifidobacterium longum 105-A carrying plasmid p126; purified on protein L resin; also called LH31 polypeptide 1 + LH31 polypeptide 2 with SP50-L2) chain 1: ATDIQMTQSPSSLSASVGDRVTITCRASQDIRNYLNWYQQKPGKAPKLLIYYTSRLESGVPSRFSGSGSGTDYTLTISSLQPEDFATYYCQQGNTLPWTFGQGTKVEIKAAGGGGSEVQLVESGGGLVQPGGSLRLSCAASGFTLSGDWIHWVRQAPGKGLEWLGEISAAGGYTDYADSVKGRFTISADTSKNTAYLQMNSLRAEDTAVYYCARESRVSFEAAMDYWGQGTLVTVSSAAAAEQKLISEEDLNLGGGMRGSHHHHHH chain 2: ATDIQMTQSPSSLSASVGDRVTITCRASQDLATDVAWYQQKPGKAPKLLIYSASFLYSGVPSRFSGSGSGTDFTLTISSLQPEDFATYYCQQSEPEPYTFGQGTKVEIKAAGGGGSEVQLVESGGGLVQPGGSLRLSCAASGYSFTGYTMNWVRQAPGKGLEWVALINPYKGVSTYNQKFKDRFTISVDKSKNTAYLQMNSLRAEDTAVYYCARSGYYGDSDWYFDVWGQGTLVTVSSAAAEQKLISEEDLNLGGGMRGSHHHHHH",binding result,[7],binds
same,"EC50, viability of HCT116 cells with T-LAKs",[4],0.0084 nM
